# Source: article PMC8311496
# Test system: PE6 (Mycobacterium tuberculosis)
# Details: 10 mM Tris-HCl pH 7.4, 100 mM NaCl, 298 K (fluorescence titration)
substance,measurement,value
dsDNA (unspecified),Kd,1400 nM
